Reference: patent US20060234926

Molecular target: beta2-microglobulin, native monomer (UniProt P61769)
Test: SPR
Conditions: at 0.5 uM RNA; 317 nM at 0.1 uM RNA; TMGA buffer pH 3.6

Sequence of beta2-microglobulin, native monomer (P61769 21-119): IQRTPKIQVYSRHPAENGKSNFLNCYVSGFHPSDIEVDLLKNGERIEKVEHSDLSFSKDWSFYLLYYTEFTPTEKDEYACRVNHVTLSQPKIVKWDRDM

Sequence: GGCNUGACANGGCAGGAUAGCCGGNCNANGCGANCNNUNGGNCCNCGANACCCGACNGUGG [N4]
- Kd: 104 nM
